Experimental data as given in patent publication US20240002497A1 (Merck Sharp & Dohme, published 2024).
Each block holds one binder with its values, some of them ahead of it.

Assays:
[1] = molecular target: T1, huNav1.7α + β1 (human Nav1.7α co-expressed with Navβ1) (human, UniProt Q15858 1-1988; Q07699 19-218); test: binding FACS, HEKa/β1 cells
T1 construct: also called HEK293 human Nav1.7α + β1; HEKa/β1 Nav1.7α

[2] = molecular target: T2, huNav1.7α (human Nav1.7 alpha subunit, expressed without β subunits) (human, UniProt Q15858 1-1988); test: binding FACS, HEKa cells
T2 construct: also called HEK293 human Nav1.7α; HEKa Nav1.7α

huNav1.7α [3] = molecular target: T3, huNav1.7α (human, UniProt Q15858 1-1988); test: binding FACS, HEKa cells
T3 construct: HEK cells expressing the α subunit alone; also called HEKa; HEK huNav1.7α
Description: Binding of the ISVDs to cell-expressed Nav1.7α was detected via murine anti-Flag (Sigma, catalog #F1804). Briefly, cells were resuspended in FACS buffer (PBS, 10% FBS, NaN₃) and transferred to a 96-well V-bottom plate at 1×10^5 cells/well. Purified FLAG3-tagged ISVD was diluted in FACS buffer and added to the cells for 30 minutes at 4° C. […] Prior to the read-out, the samples were resuspended in 1 μg/mL propidium iodide (Sigma, catalog #P4170) to exclude dead cells. Between each step, the cells were centrifuged for 5 minutes at 200 grams and washed with 100 μL/well FACS buffer.

huNav1.7α+β1-β2-β3 = molecular target: T4, huNav1.7α+β1-β2-β3 (human, UniProt Q15858 1-1988; Q07699 19-218; O60939 30-215; Q9NY72 23-215); test: binding FACS, CHO FlpIn cells
T4 construct: 5N11S variant; also called huNav1.7-beta1-beta2-beta3; huNav1.7α+Navβ1-Navβ2-Navβ3
Procedure, shortened: (§1)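 FLAG3-tagged ISVD, 30 min, 4° C, FACS buffer (PBS/10% FBS/NaN₃); 1×10^5 cells/well; detection murine anti-Flag; PI 1 μg/mL live gate; washes between steps.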

huNav1.7α+β1 = molecular target: T5, huNav1.7α+β1 (human, UniProt Q15858 1-1988; Q07699 19-218); test: binding FACS, HEKa/β1 cells
T5 construct: also called huNav1.7-beta1; HEKa/β1
Procedure, shortened: as §1

[4] = molecular target: huNav1.7α + β1 on HEK cells (human, UniProt Q15858 1-1988; Q07699 19-218); test: binding FACS, HEK cells (HEKa/b1)
huNav1.7α + β1 = huNav1.7α + β1 (human); test: cell-based or functional assay
rhNav1.7α + β1-β2-β3 = rhNav1.7α + β1-β2-β3 (rhesus monkey); test: cell-based or functional assay
rhNav1.7α+β1-β2-β3 = molecular target: T6, rhNav1.7α+β1-β2-β3 (rhesus monkey α subunit with human β …); test: binding FACS, CHO FlpIn cells
T6 construct: P2A cleaves it into α, β1, β2, β3; also called rhNav1.7-beta1-beta2-beta3

rhNav1.7α = rhNav1.7α (rhesus monkey, UniProt Q15858 1-1988 (human entry)); test: cell-based or functional assay
huNav1.7α [5] = molecular target: T3, huNav1.7α; test: cell-based or functional assay

EC50 [1]: 1 nM
EC50 [2]: 1.5 nM
B4: F010301563 (VHH)
VHH: EVQLVESGGGLVQAGGSLRLSCAASGRILRIGYMRWHRQGAGKQREFVARITDDSATGYADSVKGRFTISRDNAKNTVYLQMNNLNPEDTAVYYCEALVTASVRGGSIHSGTYWGRGTLVTVSS
notes: also called F0103387G05(D23A, D58G)

EC50 (huNav1.7α [3]): 1.2 nM
EC50 (huNav1.7α+β1-β2-β3): 2.2 nM
EC50 (huNav1.7α+β1): 1 nM
B5: F010301566 (VHH)
VHH: EVQLVESGGGLVQAGGSLRLSCDASGRILRIGYMRWHRQGAGKQREFVARITDGSATGYADSVKGRFTISRDNAKNTVYLQMNNLNPEDTAVYYCEALVTASVRGGSIHSGTYWGRGTLVTVSS
notes: vs 387G05: D54G, D58G

EC50 [4]: 65 nM
B7: F010301640 (VHH)
VHH: EVQLVESGGGVVQPGGSLRLSCAASGSIFNINSMAWYRRAPGKQRELVASSTNGGSTNYADSVKGRFTISRDNAKRTVYLQMNSLRPEDTALYYCNALLQPSIYDISRTYWGQGTLVTVSS
notes: also called F0103275B05(R76_V78insT)(L11V, T83R, V89L)

Qpatch IC50 (huNav1.7α + β1): 22 nM
Qpatch IC50 (rhNav1.7α + β1-β2-β3): 3 nM
B8: F010302383 (VHH)
VHH: EVQLVESGGGVVQPGGSLRLSCAASGPVFNINRMAWYRQAPGKQRELVAYVTPTGDISYADSVKGRFTISRGGSKRVYLQMNSLRPEDTALYYCRALLQPSSYSGTRTYWGQGTLVTVSS

EC50 (rhNav1.7α+β1-β2-β3): 170 nM
2-pulse IC50 [M], P1 (rhNav1.7α): 5e-06 M
2-pulse IC50 [M], P2 (rhNav1.7α): 4e-06 M
2-pulse IC50 [M], P1 (huNav1.7α [5]): 2e-06 M
2-pulse IC50 [M], P2 (huNav1.7α [5]): 1e-06 M
B9: F010300316 (VHH)
VHH: EVQLVESGGGLVQPGGSLRLSCAASGSIFNINSMAWYRRAPGKQRELVASSTNGGSWNYADSVKGRFTISRDNAKRVYLQMNSLTPEDTAVYYCNALLQPSIYDISRTYWGQGTLVTVSS
notes: vs F0103275B05: T57W

Qpatch IC50 (huNav1.7α + β1): 315 nM
Qpatch IC50 (rhNav1.7α + β1-β2-β3): 58 nM
B11: F010300948 (VHH)
VHH: EVQLVESGGGLVQPGGSLRLSCAASGPVFNINRMAWYRRAPGKQRELVASSTPGGSTNYADSVKGRFTISRDNAKRVYLQMNSLTPEDTAVYYCRWLLQPSIYDISRIYWGQGTLVTVSS

The next lines start with the binder.

B1: F010301556 (VHH)
VHH: EVQLVESGGGLVQAGGSLRLSCAASGRILRIGYMRWHRQGAGKQREFVARITGGSATGYADSVKGRFTISRDNAKNTVYLQMNNLNPEDTAVYYCEALVTASVRGGSIHSGTYWGRGTLVTVSS
notes: also called F0103387G05(D23A, D53G, D54G, D58G)
EC50 [1]: 1.4 nM
EC50 [2]: 1.8 nM

B2: F010301565 (VHH)
VHH: EVQLVESGGGLVQAGGSLRLSCDASGRILRIGYMRWHRQGAGKQREFVARITGDSATGYADSVKGRFTISRDNAKNTVYLQMNNLNPEDTAVYYCEALVTASVRGGSIHSGTYWGRGTLVTVSS
notes: vs 387G05: D53G, D58G
EC50 (huNav1.7α [3]): 1.4 nM
EC50 (huNav1.7α+β1-β2-β3): 2.1 nM
EC50 (huNav1.7α+β1): 1 nM

B3: F010301849 (VHH)
VHH: EVQLVESGGGVVQPGGSLRLSCAASGRILRIGYMRWHRQAPGKQREFVARITDDSATGYADSVKGRFTISRDNAKNTVYLQMNSLRPEDTALYYCEALVTASVRGGSIHSGTYWGQGTLVTVSS
notes: also called F0103387G05(L11V, A14P, D23A, G40A, A41P, D58G, N82bS, N83R, V89L, R105Q)
EC50 [1]: 1.8 nM
Bmax [2]: 100%
EC50 [2]: 3 nM

B6: F010301639 (VHH)
VHH: EVQLVESGGGVVQPGGSLRLSCAASGSIFNINSMAWYRQAPGKQRELVASSTNGGSTNYADSVKGRFTISRDNAKRTVYLQMNSLRPEDTALYYCNALLQPSIYDISRTYWGQGTLVTVSS
notes: also called F0103275B05(R76_V78insT)(L11V, R39Q, T83R, V89L)
EC50 [4]: 94 nM

B10: F010300477 (VHH)
VHH: EVQLVESGGGLVQPGGSLRLSCAASGSIFNINSMAWYRRAPGKQRELVASSTNGGSTNYADSVKGRFTISRDNAKRVYLQMNSLTPEDTAVYYCNWLLQPSIYDISRTYWGQGTLVTVSS
Qpatch IC50 (huNav1.7α + β1): 96 nM
Qpatch IC50 (rhNav1.7α + β1-β2-β3): 1190 nM
